For the test, the target named is Rabbit skeletal muscle actin (rabbit, UniProt P68135 1-377). The test can be described thus: MST; microscale thermophoresis of Ysc84-Nt with monomeric (G-) actin; conditions not shown (S1 File). As to conditions: both partners purified.

These results are taken from publication PMC4552428, “Distinct Actin and Lipid Binding Sites in Ysc84 Are Required during Early Stages of Yeast Endocytosis” (PLoS ONE, 2015).

B1: 6xHis tagged Ysc84-Nt (wild type, N-terminal YAB domain) (domain or fragment)
chain: MGINNPIPRSLKSETKKAAKVLRSFVKPNQVFGADQVIPPYVLKRAKGLAIITVLKAGFLFSGRAGSGVIVARLKDGTWSAPSAIAMAGAGAGGMVGVELTDFVFILNSEEAVRSFSEFGTITLGGNVSVSAGPLGRSAEAAASASTGGVSAVFAYSKSKGLFAGVSVEGSAILERREANRKFYGDNCTSKMILSGRVKVPPAADPLLRILESRAFNF
notes: The His tag was detected on this protein on PIP strips; no cleavage is described; also called Ysc84-Nt WT; wild-type Ysc84-Nt; source: E. coli BL21 DE3, purified (HisTrap HP nickel column)
For the molecule B1, the Kd (commonly the free concentration of one partner at which half of the binding sites on the other are occupied at equilibrium, for simple one-to-one binding) was 850 nM.
